Data reported in US20240252614A1 (Pfizer, published 2024).

Assays:
[1] = target: T1, hMPV069 (hMPV A, UniProt Q6WB98 19-102); experiment: BLI, 53C stress
T1 construct: S291I
Experimental: (§1) The OCTET HTX (Sartorius, Gottingen, Germany) instrument was used to evaluate the expression and conformational integrity for each mutant. All measurements were conducted at 30° C. temperature in 96-well black plates (Corning, Corning, NY) with a final volume of 240 μL per well at a constant agitation rate of 1000 RPM.
(§2) Conformation integrity of hMPV A F protein mutants were evaluated by thermal stress experiments. Crude cell culture supernatants were normalized based on the results of the titer quantitation and then incubated for 1 hour at room temperature and two higher temperatures. […] Anti-Human IgG Fc Capture (AHC) biosensors were first equilibrated in PB before being dipped into more PB to establish the initial baseline. […] The mAb-bound biosensors were then dipped into the thermal stressed cell culture supernatants for 5 minutes. The kinetics analysis was done by OCTET data analysis software (version 12.0, Sartorius) based on curve fitting of the entire associate step.

[2] = target: T2, hMPV077 (hMPV A, UniProt Q6WB98 19-102); experiment: BLI, 53C stress
T2 construct: Q476C, S477C
Experimental: as §1, §2

[3] = target: T3, hMPV053 (hMPV A, UniProt Q6WB98 19-102); experiment: BLI, 53C stress
T3 construct: L110P
Experimental: as §1, §2

[4] = target: T4, hMPV062 (hMPV A, UniProt Q6WB98 19-102); experiment: BLI, 53C stress
T4 construct: G121A
Experimental: as §1, §2

[5] = target: T5, hMPV045 (hMPV A, UniProt Q6WB98 19-102); experiment: BLI, 53C stress
T5 construct: I137C-A159C
Experimental: as §1, §2

[6] = target: T6, hMPV061 (hMPV A, UniProt Q6WB98 19-102); experiment: BLI, 53C stress
T6 construct: G106A
Experimental: as §1, §2

[7] = target: T7, hMPV066 (hMPV A, UniProt Q6WB98 19-102); experiment: BLI, 53C stress
T7 construct: T49I
Experimental: as §1, §2

[8] = target: T8, hMPV058 (hMPV A, UniProt Q6WB98 19-102); experiment: BLI, 53C stress
T8 construct: L187P
Experimental: as §1, §2

[9] = target: T9, hMPV067 (hMPV A, UniProt Q6WB98 19-102); experiment: BLI, 53C stress
T9 construct: S149T
Experimental: as §1, §2

[10] = target: hMPV A F WT Control (hMPV A, UniProt Q6WB98 19-102); experiment: BLI, 53C stress
Experimental: as §1, §2

[11] = target: T10, hMPV068 (hMPV A, UniProt Q6WB98 19-102); experiment: BLI, 53C stress
T10 construct: A159V
Experimental: as §1, §2

[12] = target: T11, hMPV050 (hMPV A, UniProt Q6WB98 19-102); experiment: BLI, 53C stress
T11 construct: V148C-L158C
Experimental: as §1, §2

[13] = target: T12, hMPV063 (hMPV A, UniProt Q6WB98 19-102); experiment: BLI, 53C stress
T12 construct: G239A
Experimental: as §1, §2

[14] = target: T13, hMPV055 (hMPV A, UniProt Q6WB98 19-102); experiment: BLI, 53C stress
T13 construct: N145P
Experimental: as §1, §2

[15] = target: T14, hMPV059 (hMPV A, UniProt Q6WB98 19-102); experiment: BLI, 53C stress
T14 construct: V449P
Experimental: as §1, §2

[16] = target: T15, hMPV049 (hMPV A, UniProt Q6WB98 19-102); experiment: BLI, 53C stress
T15 construct: E146C-T160C
Experimental: as §1, §2

[17] = target: T16, hMPV060 (hMPV A, UniProt Q6WB98 19-102); experiment: BLI, 53C stress
T16 construct: A459P
Experimental: as §1, §2

[18] = target: T17, hMPV048 (hMPV A, UniProt Q6WB98 19-102); experiment: BLI, 53C stress
T17 construct: L141C-A161C
Experimental: as §1, §2

[19] = target: T18, hMPV043 (hMPV A, UniProt Q6WB98 19-102); experiment: BLI, 53C stress
T18 construct: G366C-D454C
Experimental: as §1, §2

[20] = target: T19, hMPV054 (hMPV A, UniProt Q6WB98 19-102); experiment: BLI, 53C stress
T19 construct: S132P
Experimental: as §1, §2

[21] = target: T20, hMPV047 (hMPV A, UniProt Q6WB98 19-102); experiment: BLI, 53C stress
T20 construct: L141C-A159C
Experimental: as §1, §2

[22] = target: T21, hMPV052 (hMPV A, UniProt Q6WB98 19-102); experiment: BLI, 53C stress
T21 construct: L66P
Experimental: as §1, §2

[23] = target: T22, hMPV071 (hMPV A, UniProt Q6WB98 19-102); experiment: BLI, 53C stress
T22 construct: T365I
Experimental: as §1, §2

[24] = target: T23, hMPV046 (hMPV A, UniProt Q6WB98 19-102); experiment: BLI, 53C stress
T23 construct: A140C-S149C
Experimental: as §1, §2

[25] = target: T24, hMPV075 (hMPV A, UniProt Q6WB98 19-102); experiment: BLI, 53C stress
T24 construct: L473F
Experimental: as §1, §2

[26] = target: T1, hMPV069; experiment: BLI, no stress
Experimental: as §1, §2

[27] = target: T3, hMPV053; experiment: BLI, no stress
Experimental: as §1, §2

[28] = target: T5, hMPV045; experiment: BLI, no stress
Experimental: as §1, §2

[29] = target: T6, hMPV061; experiment: BLI, no stress
Experimental: as §1, §2

[30] = target: T7, hMPV066; experiment: BLI, no stress
Experimental: as §1, §2

[31] = target: T9, hMPV067; experiment: BLI, no stress
Experimental: as §1, §2

[32] = target: T11, hMPV050; experiment: BLI, no stress
Experimental: as §1, §2

[33] = target: T12, hMPV063; experiment: BLI, no stress
Experimental: as §1, §2

[34] = target: T25, hMPV044 (hMPV A, UniProt Q6WB98 19-102); experiment: BLI, no stress
T25 construct: T411C-Q434C
Experimental: as §1, §2

[35] = target: T14, hMPV059; experiment: BLI, no stress
Experimental: as §1, §2

[36] = target: T17, hMPV048; experiment: BLI, no stress
Experimental: as §1, §2

[37] = target: T19, hMPV054; experiment: BLI, no stress
Experimental: as §1, §2

[38] = target: T20, hMPV047; experiment: BLI, no stress
Experimental: as §1, §2

B1: hMPV-2 mAb (antibody, V domains shown)
VH: QVQLQQSGAEVKKPGASVKVSCKASGYTFTSYGISWVRQAPGQGLEWMGWISGYNGNTNYAQTFQGTFTMTTDTSTSTAYMELRRLRSGDTAVYYCARDRYYASGSYNGMDVWGQGTTVTVSS
VL: QSALTQPPSASGAPGQRVTVSCSGSSSNVGSSSVYWYQQLPGTAPKLLIYRNNQRPSGVPDRFSGSKSGTSASLAISGLRSEDEADYYCAAWDDSLSGWVFGGGTKLTVLG
notes: human IgG1
B1 was tested, and the “Response Shift” value [1] was -0.005 nm, the “Response Shift” value [2] was -0.007 nm and the “Response Shift” value [3] was 0.017 nm. For the same binder, the “Response Shift” value [4] was 0.013 nm, the “Response Shift” value [5] was -0.048 nm and the “Response Shift” value [6] was -0.073 nm. The “Response Shift” value [7] was 0.265 nm, the “Response Shift” value [8] was -0.052 nm and the “Response Shift” value [9] was 0.184 nm. The “Response Shift” value [10] was -0.026 nm, the “Response Shift” value [11] was 0.022 nm and the “Response Shift” value [12] was -0.032 nm. For the same binder, the “Response Shift” value [13] was 0.001 nm, the “Response Shift” value [14] was -0.073 nm and the “Response Shift” value [15] was -0.051 nm. The “Response Shift” value [16] was -0.011 nm, the “Response Shift” value [17] was -0.045 nm and the “Response Shift” value [18] was -0.059 nm. For the same binder, the “Response Shift” value [19] was 0.03 nm, the “Response Shift” value [20] was -0.072 nm and the “Response Shift” value [21] was -0.079 nm. The “Response Shift” value [22] was -0.044 nm, the “Response Shift” value [23] was -0.046 nm and the “Response Shift” value [24] was 0.196 nm. For the same binder, the “Response Shift” value [25] was -0.082 nm, the “Response Shift” value [26] was 0.747 nm and the “Response Shift” value [27] was 0.717 nm. For the same binder, the “Response Shift” value [28] was 0.582 nm, the “Response Shift” value [29] was 0.73 nm and the “Response Shift” value [30] was 0.767 nm. The “Response Shift” value [31] was 0.677 nm, the “Response Shift” value [32] was 0.669 nm and the “Response Shift” value [33] was 0.854 nm. For the same binder, the “Response Shift” value [34] was 0.797 nm, the “Response Shift” value [35] was 0.719 nm and the “Response Shift” value [36] was 0.585 nm. The “Response Shift” value [37] was 0.682 nm and the “Response Shift” value [38] was 0.268 nm.
